Measured values as given in patent publication US20190135915A1 (SYNTIMMUNE, published 2019).
Blank lines part the entries; values can stand above or below the binder they belong to.

Tests used:
[1] = target: T1, FcRn (analyte in the Biacore T200 study) (human, UniProt P55899 24-297; P61769 21-119, limits assumed); assay: SPR Biacore T200, antibody amine-coupled to CM5, FcRn analyte, 1:1 model; pH not stated
T1 construct: also called human FcRn
Experimental: (§1) Antibodies were immobilized onto a Series S CM5 sensor chip surface using standard amine coupling chemistry and analyte (FcRn) flowed over the surface. A 2-fold dilution range was selected from 50-0.01 nM FcRn. The association phase of FcRn analyte was monitored for 450 seconds, and dissociation was initially measured for either 250 or 2500 seconds, at 40 μl/min Fc1 was a reference channel and was subtracted from other flow cells to correct for non-specific binding. […] Kinetic values are based on a 1:1 binding model (Table 5).

[2] = target: T2, monomeric His-tagged hFcRn (human, UniProt P55899 24-297; P61769 21-119, limits assumed); assay: SPR Biacore 3000, antibody amine-coupled to CM5, His-tagged hFcRn analyte, pH 6.0, 25 C, 1:1 Langmuir
T2 construct: also called human FcRn; not shown: His tag
Experimental: (§2) The coupling was performed by injecting 2 μg/ml of each protein into 10 mM sodium acetate, pH 4.5 (GE Healthcare), using the amine coupling kit (GE Healthcare). HBS-P buffer pH 7.4 (0.01 M HEPES, 0.15 M NaCl, 0.005% surfactant P20) or phosphate buffer pH 6.0 (67 mM phosphate buffer, 0.15 M NaCl, 0.005% Tween 20) were used as running buffer and dilution buffer. […] All SPR experiments were conducted at 25° C. with a flow rate of 40 μl/min Binding data were zero-adjusted, and the reference cell value subtracted. The Langmuir 1:1 ligand binding model provided by the BIAevaluation software (version 4.1) was used to determine the binding kinetics. The closeness of the fit is described by the statistical value χ².

[3] = target: T3, recombinant human FcRn (Sino Biological Inc. Cat. No. CT009-H08H) (human, UniProt P55899 24-297; P61769 21-119); assay: competition ELISA, pH 6.0: test IgG4 (stable NS0) titrated against fixed biotinylated murine parent antibody on recombinant human FcRn; streptavidin-HRP/TMB, OD450 [bottom panel]
T3 construct: also called immobilized FcRn
Experimental: (§3) The IgG4 antibodies were tested for antigen binding in a competition ELISA at pH 6.0 and pH 7.4. A Nunc Immuno MaxiSorp 96 well flat bottom microtitre plate (Fisher, cat. no. DIS-971-030J) was pre-coated with 1 μg/ml of an FcRn antibody specific for an IgG-binding epitope distinct from the albumin-binding region overnight at pH 7.4. The following day, 1 μg/ml recombinant human FcRn (Sino Biological Inc. cat. no. CT009-H08H) diluted in PBS pH 7.4 was added to the wells and incubated for 1 hour at 37° C. After washing the plates 3× with PBST pH 7.4, the plates were blocked with PBSM pH 7.4 for 1 hour at 37° C. From this point onwards, all wash and incubation steps were performed at the chosen assay pH (pH 6.0 or 7.4). […] The reaction was stopped with 3 M HCl, absorbance read at 450 nm on a Dynex Technologies MRX TC II plate reader and the binding curves plotted.
(§4) NS0 produced humanized affinity matured IgGs were used in all assays other than G50_C10/Vκ3), which was purified from transiently expressing HEK cells.

[4] = target: T3, recombinant human FcRn (Sino Biological …); assay: competition ELISA, pH 7.4: test IgG4 (stable NS0) titrated against fixed biotinylated murine parent antibody on recombinant human FcRn; streptavidin-HRP/TMB, OD450 [bottom panel]
Experimental: as §3, §4

[5] = target: T2, monomeric His-tagged hFcRn; assay: SPR Biacore 3000, antibody amine-coupled to CM5, His-tagged hFcRn analyte, pH 7.4, 25 C, 1:1 Langmuir
Experimental: as §2
The kinetic rate constants were obtained using a simple first-order (1:1) Langmuir bimolecular interaction model. The kinetic values represent the average of duplicates. The χ² (chi-square) values represent the fit to the binding model used.

[6] = target: T1, FcRn (analyte in the Biacore T200 study); assay: SPR Biacore T200, antibody amine-coupled to CM5, FcRn analyte, 1:1 model; chip with the three best variants (repeat run, dissociation 4500 s per paragraph 156); pH not stated
Experimental: as §1

[7] = target: T3, recombinant human FcRn (Sino Biological …); assay: competition ELISA, pH 6.0: test IgG4 (stable NS0) titrated against fixed biotinylated murine parent antibody on recombinant human FcRn; streptavidin-HRP/TMB, OD450 [middle panel]
Experimental: as §3, §4

[8] = target: T3, recombinant human FcRn (Sino Biological …); assay: competition ELISA, pH 7.4: test IgG4 (stable NS0) titrated against fixed biotinylated murine parent antibody on recombinant human FcRn; streptavidin-HRP/TMB, OD450 [middle panel]
Experimental: as §3, §4

[9] = target: T3, recombinant human FcRn (Sino Biological …); assay: competition ELISA, pH 6.0; competitor biotinylated parent murine antibody; captured recombinant human FcRn; HEK-expressed IgG4
Experimental: as §3

[10] = target: T3, recombinant human FcRn (Sino Biological …); assay: competition ELISA, pH 6.0; competitor biotinylated parent murine antibody; captured recombinant human FcRn; NS0-expressed IgG4
Experimental: as §3, §4

[11] = target: T3, recombinant human FcRn (Sino Biological …); assay: competition ELISA, pH 7.4; competitor biotinylated parent murine antibody; captured recombinant human FcRn; NS0-expressed IgG4
Experimental: as §3, §4

[12] = target: T1, FcRn (analyte in the Biacore T200 study); assay: SPR Biacore T200; KD of humanized parent VH1/Vκ1 divided by KD of the test antibody on the same chip
Experimental: as §1

[13] = target: T3, recombinant human FcRn (Sino Biological …); assay: competition ELISA, pH 7.4; competitor biotinylated parent murine antibody; captured recombinant human FcRn; HEK-expressed IgG4
Experimental: as §3

[14] = target: T3, recombinant human FcRn (Sino Biological …); assay: competition ELISA, pH 7.4: test IgG4 (transient HEK) titrated against fixed biotinylated murine parent antibody on recombinant human FcRn; streptavidin-HRP/TMB, OD450
Experimental: as §3

[15] = target: T3, recombinant human FcRn (Sino Biological …); assay: competition ELISA, pH 6.0: test IgG4 (stable NS0) titrated against fixed biotinylated murine parent antibody on recombinant human FcRn; streptavidin-HRP/TMB, OD450 [top panel]
Experimental: as §3, §4

[16] = target: T3, recombinant human FcRn (Sino Biological …); assay: competition ELISA, pH 7.4: test IgG4 (stable NS0) titrated against fixed biotinylated murine parent antibody on recombinant human FcRn; streptavidin-HRP/TMB, OD450 [top panel]
Experimental: as §3, §4

[17] = target: T1, FcRn (analyte in the Biacore T200 study); assay: SPR Biacore T200, antibody amine-coupled to CM5, FcRn analyte, 1:1 model; chip with the three best variants (repeat run, dissociation 4500 s per paragraph 156); pH not stated; repeat run of the three best variants, dissociation 4500 s
Experimental: as §1

Kd [1]: 1.11 nM
Kd [2]: 1.7 nM
IC50 (read off the curve) [3]: ~0.2 µg/mL
IC50 (read off the curve) [4]: ~0.5 µg/mL
B1: G49_H9.3/Vκ3 (antibody, V domains shown)
VH: EVQLVESGGGLVKPGGSLKLSCAASGFTFSDYGMHWVRQAPGKGLEWVAYISSGSSTIYYADTVKGRFTISRDNAKNTLYLQMNSLRAEDTAMYYCARFDSLSTVGDYWGQGTSVTVSS
VL: DIVMTQSPDSLSASVGDRVTITCKASQSVSNDVAWYQQKPGQPPKLLIYYASNRYTGVPDRFSGSGYGTDFTLTISSLQAEDVAVYFCQQDYSSLTFGQGTKLEIK
notes: Bivalent IgG4 with S241P, human kappa; also called SYNT002-21; G49_H9.3 VH1

Kd [2]: 0.7 nM
Kd [5]: 7.8 nM
Kd [6]: 0.39 nM
IC50 (read off the curve) [7]: ~0.3 µg/mL
IC50 (read off the curve) [8]: ~0.5 µg/mL
B2: G15_C3/Vκ3 (antibody, V domains shown)
VH: EVQLVESGGGLVKPGGSLKLSCAASGFTFSDYGMHWVRQAPGKGLEWVAYISSGSSTIYYADTVKGRFTISRDNAKNTLYLQMNSLRAEDTAMYYCARGESTTTVGDYWGQGTSVTVSS
VL: DIVMTQSPDSLSASVGDRVTITCKASQSVSNDVAWYQQKPGQPPKLLIYYASNRYTGVPDRFSGSGYGTDFTLTISSLQAEDVAVYFCQQDYSSLTFGQGTKLEIK
notes: Bivalent IgG4 with S241P, human kappa; also called SYNT002-3; G15_C3 VH1

Kd [1]: 1.99 nM
B3: G52_G9/Vκ3 (antibody, V domains shown)
VH: EVQLVESGGGLVKPGGSLKLSCAASGFTFSDYGMHWVRQAPGKGLEWVAYISSGSSTIYYADTVKGRFTISRDNAKNTLYLQMNSLRAEDTAMYYCARFDTPSTVGDYWGQGTSVTVSS
VL: DIVMTQSPDSLSASVGDRVTITCKASQSVSNDVAWYQQKPGQPPKLLIYYASNRYTGVPDRFSGSGYGTDFTLTISSLQAEDVAVYFCQQDYSSLTFGQGTKLEIK
notes: Bivalent IgG4 with S241P, human kappa; also called G52_G9 VH1

Kd [1]: 1.21 nM
Average relative IC50 (relative to humanized parent) [9]: 0.8
Average relative IC50 (relative to humanized parent) [10]: 0.8
Average relative IC50 (relative to humanized parent) [11]: 0.87
B4: G49_H9.5/Vκ3 (antibody, V domains shown)
VH: EVQLVESGGGLVKPGGSLKLSCAASGFTFSDYGMHWVRQAPGKGLEWVAYISSGSSTIYYADTVKGRFTISRDNAKNTLYLQMNSLRAEDTAMYYCARLEAVSAVGDYWGQGTSVTVSS
VL: DIVMTQSPDSLSASVGDRVTITCKASQSVSNDVAWYQQKPGQPPKLLIYYASNRYTGVPDRFSGSGYGTDFTLTISSLQAEDVAVYFCQQDYSSLTFGQGTKLEIK
notes: Bivalent IgG4 with S241P, human kappa; also called G49_H9.5 VH1

Kd [1]: 2.09 nM
koff [1]: 0.000814 s⁻¹
kon [1]: 389000 M⁻¹ s⁻¹
Fold difference in KD [12]: 1.2 fold
Average relative IC50 (relative to humanized parent) [9]: 0.8
Average relative IC50 (relative to humanized parent) [13]: 0.7
Average relative IC50 (relative to humanized parent) [10]: 0.84
Average relative IC50 (relative to humanized parent) [11]: 0.89
B5: G47_H6/Vκ3 (antibody, IgG4, V domains shown)
VH: EVQLVESGGGLVKPGGSLKLSCAASGFTFSDYGMHWVRQAPGKGLEWVAYISSGSSTIYYADTVKGRFTISRDNAKNTLYLQMNSLRAEDTAMYYCARFSSLSTVGDYWGQGTSVTVSS
VL: DIVMTQSPDSLSASVGDRVTITCKASQSVSNDVAWYQQKPGQPPKLLIYYASNRYTGVPDRFSGSGYGTDFTLTISSLQAEDVAVYFCQQDYSSLTFGQGTKLEIK
notes: IgG4 with S241P, human kappa; also called G47_H6 VH1

Kd [1]: 0.33 nM
Kd [2]: 0.6 nM
Kd [5]: 4 nM
IC50 (read off the curve) [14]: ~0.2 µg/mL
IC50 (read off the curve) [15]: ~0.3 µg/mL
IC50 (read off the curve) [16]: ~0.5 µg/mL
Kd [17]: 0.24 nM
B6: G47_B10/Vκ3 (antibody, V domains shown)
VH: EVQLVESGGGLVKPGGSLKLSCAASGFTFSDYGMHWVRQAPGKGLEWVAYISSGSSTIYYADTVKGRFTISRDNAKNTLYLQMNSLRAEDTAMYYCARAESTTTVGDYWGQGTSVTVSS
VL: DIVMTQSPDSLSASVGDRVTITCKASQSVSNDVAWYQQKPGQPPKLLIYYASNRYTGVPDRFSGSGYGTDFTLTISSLQAEDVAVYFCQQDYSSLTFGQGTKLEIK
notes: Bivalent IgG4 with S241P, human kappa; also called SYNT002-8; G47_B10VH1_Vκ3

Kd [1]: 3.71 nM
Kd [5]: 34 nM
IC50 (read off the curve) [3]: ~0.3 µg/mL
B7: G54_D11/Vκ3 (antibody, V domains shown)
VH: EVQLVESGGGLVKPGGSLKLSCAASGFTFSDYGMHWVRQAPGKGLEWVAYISSGSSTIYYADTVKGRFTISRDNAKNTLYLQMNSLRAEDTAMYYCARFDTPATVGDYWGQGTSVTVSS
VL: DIVMTQSPDSLSASVGDRVTITCKASQSVSNDVAWYQQKPGQPPKLLIYYASNRYTGVPDRFSGSGYGTDFTLTISSLQAEDVAVYFCQQDYSSLTFGQGTKLEIK
notes: Bivalent IgG4 with S241P, human kappa; also called SYNT002-17; G54_D11 VH1
